Data on 1 molecule can be found in publication PMC8123688, “In Vivo Imaging of Thyroid Cancer with ^99mTc-TR1401 and ^99mTc-TR1402: A Comparison Study in Dogs” (Journal of Clinical Medicine, 2021).

In this assay the target is T1, TSH receptor (TSHR) on human ML-1 cells (human (endogenous in ML-1), UniProt P16473 21-764).
T1 construct: thyrotropin receptor (TSHR) expressed on the TSHR-positive human thyroid cancer cell line ML-1; also called TSH receptors; source: endogenous, on human ML-1 cells
T1 sequence (P16473 21-764): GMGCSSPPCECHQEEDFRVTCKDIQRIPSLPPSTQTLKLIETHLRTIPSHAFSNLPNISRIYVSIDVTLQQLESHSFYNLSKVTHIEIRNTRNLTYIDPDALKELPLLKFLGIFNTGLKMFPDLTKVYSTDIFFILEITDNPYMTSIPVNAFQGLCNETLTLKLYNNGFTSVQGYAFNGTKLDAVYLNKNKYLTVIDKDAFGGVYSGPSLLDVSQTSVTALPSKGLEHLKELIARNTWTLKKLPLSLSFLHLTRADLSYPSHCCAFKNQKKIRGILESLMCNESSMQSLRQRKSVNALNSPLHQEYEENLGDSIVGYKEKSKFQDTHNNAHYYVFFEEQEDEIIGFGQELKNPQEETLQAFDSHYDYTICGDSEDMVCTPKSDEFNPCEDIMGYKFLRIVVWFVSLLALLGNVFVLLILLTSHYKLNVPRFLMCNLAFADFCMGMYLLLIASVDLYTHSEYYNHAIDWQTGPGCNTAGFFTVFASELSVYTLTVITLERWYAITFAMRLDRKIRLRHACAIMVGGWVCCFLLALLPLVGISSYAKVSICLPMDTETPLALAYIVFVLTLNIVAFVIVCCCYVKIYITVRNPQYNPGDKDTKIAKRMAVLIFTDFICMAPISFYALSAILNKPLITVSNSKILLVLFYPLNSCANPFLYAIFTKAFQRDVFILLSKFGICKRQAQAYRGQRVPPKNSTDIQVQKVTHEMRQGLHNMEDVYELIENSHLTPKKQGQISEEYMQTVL
The assay can be described thus: radioligand binding; real-time kinetic binding assay with LigandTracer; 10^6 ML-1 cells seeded in a tilted Petri dish; 2 mL of 30 nM radiolabeled ligand in culture medium for 1 h, then medium without ligand to follow release; Kd from binding/release curve (GraphPad Prism). The settings on record: one partner purified.

B1: 99mTc-Thyrogen, radiolabeled recombinant human TSH (Thyrogen) (ligand)
chain 1: not shown
chain 2: FCIPTEYTMHIERRECAYCLTINTTICAGYCMTRDINGKLFLPKYALSQDVCTYRDFIYRTVEIPGCPLHVAPYFSYPVALSCKCGKCNTDYSDCIHEAIKTNYCTKPQKSY
modifications: technetium-99m label (sites and chain not stated) | technetium-99m label (sites and chain not stated)
notes: glycoprotein hormones alpha chain (alpha subunit of TSH), human; recombinant human TSH (Thyrogen), so named in the abstract; thyrotropin (TSH) beta subunit, human; Thyrogen is a drug product; also called rhTSH; radiolabeled human recombinant TSH
One may read the Kd as the equilibrium constant for the complex coming apart. Consider B1, for which the Kd was found to be 8.4 nM. That is a single-digit nanomolar value.
